Patent US20110165624A1

Molecular target: native Ocr protein (bacteriophage T7 gene 0.3 product) as produced from pMCSG7 (bacteriophage T7)
Experiment: size exclusion chromatography, Superdex 75; predicted monomer 16.6 kDa, dimer 33.3 kDa

native Ocr protein (bacteriophage T7 gene 0.3 product) as produced from pMCSG7
calculated molecular weight on size exclusion column: 35 kDa
